Assays:
[1] = molecular target: T1, La protein (Lupus autoantigen), native, in lysates of fusing human osteoclasts (human, UniProt P05455 1-408, limits assumed); assay: co-immunoprecipitation with α-La on magnetic beads from DTSSP-crosslinked osteoclast lysates, immunoblot
T1 construct: Endogenous La from monocyte-derived human osteoclasts 3 days post-RANKL; also called native La; SSB
T1 sequence: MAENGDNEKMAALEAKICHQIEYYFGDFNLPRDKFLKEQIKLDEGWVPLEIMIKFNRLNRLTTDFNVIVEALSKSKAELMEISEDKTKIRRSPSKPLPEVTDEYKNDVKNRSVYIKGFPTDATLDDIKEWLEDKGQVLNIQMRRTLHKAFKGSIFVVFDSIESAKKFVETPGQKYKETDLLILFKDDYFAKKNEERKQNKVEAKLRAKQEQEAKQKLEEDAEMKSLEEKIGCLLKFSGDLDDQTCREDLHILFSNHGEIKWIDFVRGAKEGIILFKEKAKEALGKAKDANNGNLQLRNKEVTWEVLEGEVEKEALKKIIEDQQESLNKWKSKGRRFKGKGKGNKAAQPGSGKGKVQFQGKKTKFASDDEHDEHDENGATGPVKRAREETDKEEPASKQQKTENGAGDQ

[2] = system: human monocyte-derived osteoclasts; assay: Osteoclast fusion assay (number of fusion events, fluorescence microscopy); format: cell-based; details: for osteoclast fusion (fusion events in syncytia with 3+ nuclei): overexpression from expression plasmid vs empty plasmid, human osteoclasts; for formation of multinucleated syncytia (osteoclast fusion): recombinant protein ~40 nM added end of day 2 post-RANKL, overnight
Experimental: Osteoclasts: Elutriated monocytes from healthy donors were obtained. Cells were plated at 2.9×10^5 per cm^2 in 35 mm dishes with polymer coverslip bottoms (Ibidi #81156) for imaging or 35 mm or 10 cm dishes for biochemical experiments in complete media [α-MEM supplemented with 10% Fetal Bovine Serum (FBS) and penicillin-streptomycin-L-glutamine (Gibco Invitrogene #12571063; #26140079 and #10378016, respectively)]. Monocytes were differentiated to M2 macrophages in the presence of 100 ng/ml M-CSF for 6 days and then differentiated with 100 ng/ml M-CSF and 100 ng/ml RANKL for 3 days unless indicated otherwise. RAW 264.7 cells (ATCC, Manassas, VA, #TIB-71) were maintained in DMEM supplemented with 10% FBS to a maximum of 8 passages. RAW 264.7 cells were differentiated to osteoclasts in the presence of 100 ng/ml murine RANKL for 5 days. To separate unfused mononucleated and fused, multinucleated RAW 264.7 cells into separate fractions, advantage was taken of the much stronger adherence of multinucleated cells to culture dish plastic. After washing in PBS, mixed RAW cultures (following RANKL differentiation) were left in Ca^2+ and Mg^2+ free PBS for 10 minutes at room temperature. Culture dishes were then tapped on the lab bench and a large portion of unfused, mononucleated RAW cells were released, and these released cells were collected via centrifugation. This process was repeated 2-4 times until dishes were left with a population of primarily fused, multinucleated syncytia. Mononucleated and multinucleated cell fractions were then processed for biochemical or imaging experiments as described below.
Constructs & Recombinant proteins & Transfection: Recombinant La 1-408, 1-375, 1-375 Q20A_Y24A_D33I, 1-187 and 188-375 were amplified with primers designed with overlapping sequences and inserted between NdeI/HindIII in the V78 pET28A E. coli expression vector, adding to each a N-terminal 6×his affinity tag. La 1-408 was expressed as a recombinant protein in E. coli and purified using IMAC columns by SD Biosciences (San Diego, CA). The remaining constructs were transformed into BL2 (DE3) chemically competent E. coli (Thermo Fisher Scientific) and protein expression was induced with IPTG. Cells were lysed with Bugbuster (Sigma), and 6×his-La proteins were affinity purified using HisPur Cobalt Spin columns (Thermo Fisher Scientific), each according to the manufacturer's instructions. Endotoxin contaminates were depleted from affinity purified 6×his-La proteins using Pierce high-capacity endotoxin removal columns (Thermo Fisher Scientific), according to the manufacturer's instructions. Proteins were then sterile filtered, aliquoted and kept at −80 C.
Plasmids were introduced into primary osteoclasts at day 2 of RANKL stimulation via jetPRIME (Polyplus Transfection). FLAG-La 1-408, FLAG-La 1-375 and FLAG-La 1-375 Q20A_Y24A_D33I plasmids were a gift of the Maraia Lab (NICHD). Briefly, SSB (UniProt P05455) was inserted between HindIII and BamHI the pFLAG-CMV2 vector (Sigma). “Uncleavable” La was produced by taking the FLAG-La 1-408 plasmid and making two point mutations at amino acids D371A and D374A, abrogating the caspase cleavage sites at the C-terminal region of the protein (Emory Integrated Genomics Core). siRNA were introduced into primary osteoclasts after 1 day of RANKL stimulation via Lipofectamine RNAiMAX (Thermo Fisher Scientific). Non-targeted (Cat #4390843) and SSB-targeted (Cat #4392420_ID:s13469) siRNA were introduced at a concentration of 5 ng/ml (Silencer Select, Ambion).
Fusion Assays: Osteoclast fusion in the culture systems was evaluated by fluorescence microscopy (Verma et al., J Biol Chem 293, 254-270, doi:10.1074/jbc.M117.809681 (2018)). Briefly, cells were fixed with 4% paraformaldehyde at timepoints of interest, permeabilized with 0.1% TRITON™ X-100 and blocked with 5% FBS. Cells were then stained with phallodin-ALEXAFLURO®488 and Hoechst to label cells' actin cytoskeleton and nuclei, respectively. […]

[3] = system: human, monocyte-derived osteoclasts; assay: Bone resorption assay (fluoresceinamine-labeled chondroitin sulfate on calcium phosphate-coated plates); format: cell-based; details: for bone resorption: overexpression, normalized to empty plasmid
Experimental: There is a relationship between osteoclast fusion and bone resorption (Makris and Saffar, Arch Oral Biol 27, 965-969, doi:10.1016/0003-9969(82)90104-2 (1982); Piper et al., Anat Embryol (Berl) 186, 291-299, doi:10.1007/BF00185977 (1992); Moller et al., Int J Mol Sci 21, doi:10.3390/ijms21176368 (2020)). It was hypothesized that by regulating osteoclast size, La also regulates bone resorption. This hypothesis was evaluated by differentiating osteoclasts on fluoresceinated calcium phosphate, a biomimetic of bone, and assessed osteoclast-dependent bone resorption by the release of fluorescein into the media (FIG. 5A). […] Overexpression of La 1-375 promoted bone resorption, while the uncleavable La mutant, D371,374A, had no effect (FIG. 5B).
Bone Resorption: Bone resorption was evaluated using bone resorption assay kits from Cosmo Bio USA according to the manufacturer's instructions. Briefly, fluoresceinamine-labeled chondroitin sulfate was used to label 24-well, calcium phosphate-coated plates. Human, monocyte-derived osteoclasts were differentiated as described above, using alpha MEM without phenol red. Media were collected at 4-5 days post RANKL addition, and fluorescence intensity within the media was evaluated as recommended by the manufacture.

[4] = system: RAW 264.7 derived, murine osteoclasts; assay: Osteoclast fusion assay in RAW 264.7 derived osteoclasts; format: cell-based; details: overexpression from expression plasmid vs empty plasmid
Experimental: Osteoclasts: Elutriated monocytes from healthy donors were obtained. Cells were plated at 2.9×10^5 per cm^2 in 35 mm dishes with polymer coverslip bottoms (Ibidi #81156) for imaging or 35 mm or 10 cm dishes for biochemical experiments in complete media [α-MEM supplemented with 10% Fetal Bovine Serum (FBS) and penicillin-streptomycin-L-glutamine (Gibco Invitrogene #12571063; #26140079 and #10378016, respectively)]. Monocytes were differentiated to M2 macrophages in the presence of 100 ng/ml M-CSF for 6 days and then differentiated with 100 ng/ml M-CSF and 100 ng/ml RANKL for 3 days unless indicated otherwise. RAW 264.7 cells (ATCC, Manassas, VA, #TIB-71) were maintained in DMEM supplemented with 10% FBS to a maximum of 8 passages. […]
Fusion Assays: Osteoclast fusion in the culture systems was evaluated by fluorescence microscopy (Verma et al., J Biol Chem 293, 254-270, doi:10.1074/jbc.M117.809681 (2018)). […] Osteoclast fusion efficiency was evaluated as the number of fusion events between cells in these images, as described previously. Since regardless of the sequence of fusion events, the number of cell-to-cell fusion events required to generate syncytium with N nuclei is always equal to N−1, the fusion number index was calculated as Σ(Ni−1)=Ntotal−Nsyn, where Ni=the number of nuclei in individual syncytia and Nsyn=the total number of syncytia. […]

| Molecule | binding result [1] | osteoclast fusion (fusion events in syncytia with 3+ nuclei) [2] | formation of multinucleated syncytia (osteoclast fusion) [2] | osteoclast bone resorption ([3]; 40 nM recombinant protein, extracellular addition, vs PBS) | bone resorption [3] | osteoclast fusion (fusion events in syncytia with 3+ nuclei) [4] |
| --- | --- | --- | --- | --- | --- | --- |
| Annexin A1 (Anx A1), native, in fusing human osteoclasts (other, UniProt P04083 2-346, looked up) AMVSEFLKQAWFIENEEQEYVQTVKSSKGGPGSAVSPYPTFNPSSDVAALHKAIMVKGVDEATIIDILTKRNNAQRQQIKAAYLQETGKPLDETLKKALTGHLEEVVLALLKTPAQFDADELRAAMKGLGTDEDTLIEILASRTNKEIRDINRVYREELKRDLAKDITSDTSGDFRNALLSLAKGDRSEDFGVNEDLADSDARALYEAGERRKGTDVNVFNTILTTRSYPQLRRVFQKYTKYSKHDMNKVLDLELKGDIEKCLTAIVKCATSKPAFFAEKLHQAMKGVGTRHKALIRIMVSRSEIDMNDIKAFYQKMYGISLCQAILDETKGDYEKILVALCGGN | no binding |  |  |  |  |  |
| Annexin A4 (Anx A4), native, in fusing human osteoclasts (other, UniProt P09525 2-319, looked up) ATKGGTVKAASGFNAMEDAQTLRKAMKGLGTDEDAIISVLAYRNTAQRQEIRTAYKSTIGRDLIDDLKSELSGNFEQVIVGMMTPTVLYDVQELRRAMKGAGTDEGCLIEILASRTPEEIRRISQTYQQQYGRSLEDDIRSDTSFMFQRVLVSLSAGGRDEGNYLDDALVRQDAQDLYEAGEKKWGTDEVKFLTVLCSRNRNHLLHVFDEYKRISQKDIEQSIKSETSGSFEDALLAIVKCMRNKSAYFAEKLYKSMKGLGTDDNTLIRVMVSRAEIDMLDIRAHFKRLYGKSLYSFIKGDTSGDYRKVLLVLCGGDD | no binding |  |  |  |  |  |
| La 1-375: amino acids 1-375 of human La lacking NLS; recombinant protein or overexpressed from FLAG plasmid (protein, listed as Homo sapiens) MAENGDNEKMAALEAKICHQIEYYFGDFNLPRDKFLKEQIKLDEGWVPLEIMIKFNRLNRLTTDFNVIVEALSKSKAELMEISEDKTKIRRSPSKPLPEVTDEYKNDVKNRSVYIKGFPTDATLDDIKEWLEDKGQVLNIQMRRTLHKAFKGSIFVVFDSIESAKKFVETPGQKYKETDLLILFKDDYFAKKNEERKQNKVEAKLRAKQEQEAKQKLEEDAEMKSLEEKIGCLLKFSGDLDDQTCREDLHILFSNHGEIKWIDFVRGAKEGIILFKEKAKEALGKAKDANNGNLQLRNKEVTWEVLEGEVEKEALKKIIEDQQESLNKWKSKGRRFKGKGKGNKAAQPGSGKGKVQFQGKKTKFASDDEHDEHDE |  | greatly promoted | significantly promoted | dramatically increased | promoted | greatly promoted |
| La 1-375 RNAΔ: La 1-375 with three point mutations impairing La domain RNA binding (protein, UniProt P05455 1-375, looked up, variant Q20A Y24A D33I) MAENGDNEKMAALEAKICHAIEYAFGDFNLPRIKFLKEQIKLDEGWVPLEIMIKFNRLNRLTTDFNVIVEALSKSKAELMEISEDKTKIRRSPSKPLPEVTDEYKNDVKNRSVYIKGFPTDATLDDIKEWLEDKGQVLNIQMRRTLHKAFKGSIFVVFDSIESAKKFVETPGQKYKETDLLILFKDDYFAKKNEERKQNKVEAKLRAKQEQEAKQKLEEDAEMKSLEEKIGCLLKFSGDLDDQTCREDLHILFSNHGEIKWIDFVRGAKEGIILFKEKAKEALGKAKDANNGNLQLRNKEVTWEVLEGEVEKEALKKIIEDQQESLNKWKSKGRRFKGKGKGNKAAQPGSGKGKVQFQGKKTKFASDDEHDEHDE |  |  | significantly promoted |  |  | promoted formation of multinucleated osteoclasts as robustly as wild type La 1-375 |
| D371A,D374A La: uncleavable mutant of FL La, caspase cleavage sites disrupted, overexpressed from plasmid (protein, UniProt P05455 1-408, looked up, variant D371A D374A, full-length, uncleavable mutant of FL La, caspase cleavage sites disrupted, overexpressed from plasmid) MAENGDNEKMAALEAKICHQIEYYFGDFNLPRDKFLKEQIKLDEGWVPLEIMIKFNRLNRLTTDFNVIVEALSKSKAELMEISEDKTKIRRSPSKPLPEVTDEYKNDVKNRSVYIKGFPTDATLDDIKEWLEDKGQVLNIQMRRTLHKAFKGSIFVVFDSIESAKKFVETPGQKYKETDLLILFKDDYFAKKNEERKQNKVEAKLRAKQEQEAKQKLEEDAEMKSLEEKIGCLLKFSGDLDDQTCREDLHILFSNHGEIKWIDFVRGAKEGIILFKEKAKEALGKAKDANNGNLQLRNKEVTWEVLEGEVEKEALKKIIEDQQESLNKWKSKGRRFKGKGKGNKAAQPGSGKGKVQFQGKKTKFASDDEHAEHAENGATGPVKRAREETDKEEPASKQQKTENGAGDQ |  | no effect |  |  | no effect |  |

From US20240041978A1, “LA PROTEIN AS A NOVEL REGULATOR OF OSTEOCLASTOGENESIS” (The U.S.A., as Represented by the Secretary, Department of …, priority 2021, published 2024)
